Data as given in patent US20070238638A1 (TANOX, published 2007).

Target: T1, NFκB family member p65 (human, UniProt Q04206 1-551)
T1 construct: also called p65 NFκB protein
Assay: EMSA gel supershift, HT29 nuclear extract on κB1 oligonucleotide
Description: Gel supershift assays were performed as described above, except that antibodies specific for various promoter-binding proteins were added after the initial binding reaction and the mixture was incubated overnight at 4° C.

T1 sequence (Q04206 whole entry): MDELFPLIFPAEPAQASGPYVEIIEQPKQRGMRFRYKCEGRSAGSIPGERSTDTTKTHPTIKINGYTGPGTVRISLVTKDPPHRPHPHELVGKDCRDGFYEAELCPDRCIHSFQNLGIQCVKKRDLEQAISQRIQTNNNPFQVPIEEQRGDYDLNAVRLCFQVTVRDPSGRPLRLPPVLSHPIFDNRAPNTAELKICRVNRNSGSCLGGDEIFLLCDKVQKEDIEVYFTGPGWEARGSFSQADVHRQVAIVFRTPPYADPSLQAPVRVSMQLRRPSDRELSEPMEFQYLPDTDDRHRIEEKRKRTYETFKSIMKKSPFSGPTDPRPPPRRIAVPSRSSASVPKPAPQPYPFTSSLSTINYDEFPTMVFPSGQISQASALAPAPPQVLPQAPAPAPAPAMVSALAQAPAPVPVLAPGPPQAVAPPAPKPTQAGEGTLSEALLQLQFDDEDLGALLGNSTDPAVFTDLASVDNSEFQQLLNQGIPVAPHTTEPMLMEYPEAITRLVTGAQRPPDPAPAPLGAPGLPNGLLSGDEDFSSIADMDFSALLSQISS

B1: NFκB family member p50 (other, human, UniProt P19838 1-433, looked up)
chain: MAEDDPYLGRPEQMFHLDPSLTHTIFNPEVFQPQMALPTDGPYLQILEQPKQRGFRFRYVCEGPSHGGLPGASSEKNKKSYPQVKICNYVGPAKVIVQLVTNGKNIHLHAHSLVGKHCEDGICTVTAGPKDMVVGFANLGILHVTKKKVFETLEARMTEACIRGYNPGLLVHPDLAYLQAEGGGDRQLGDREKELIRQAALQQTKEMDLSVVRLMFTAFLPDSTGSFTRRLEPVVSDAIYDSKAPNASNLKIVRMDRTAGCVTGGEEIYLLCDKVQKDDIQIRFYEEEENGGVWEGFGDFSPTDVHRQFAIVFKTPKYKDINITKPASVFVQLRRKSDLETSEPKPFLYYPEIKDKEEVQRKRQKLMPNFSDSFGGGSGAGAGGGGMFGSGGGGGGTGSTGPGYSFPHYGFPTYGGITFHPGTTKSNAGMKHG
notes: also called p50 NFκB protein
Q: Does B1 bind?
A: Result: binds
